Source: IntAct's records for PubMed 23340509

B1: Protein Tob2 (Homo sapiens), Q14106 (parent)
chain: MQLEIKVALNFIISYLYNKLPRRRADLFGEELERLLKKKYEGHWYPEKPLKGSGFRCVHIGEMVDPVVELAAKRSGLAVEDVRANVPEELSVWIDPFEVSYQIGEKGAVKVLYLDDSEGCGAPELDKEIKSSFNPDAQVFVPIGSQDSSLSNSPSPSFGQSPSPTFIPRSAQPITFTTASFAATKFGSTKMKKGGGAASGGGVASSGAGGQQPPQQPRMARSPTNSLLKHKSLSLSMHSLNFITANPAPQSQLSPNAKEFVYNGGGSPSLFFDAADGQGSGTPGPFGGSGAGTCNSSSFDMAQVFGGGANSLFLEKTPFVEGLSYNLNTMQYPSQQFQPVVLAN

Variants of: B1
Details: with pabp1_human PABPC1, P11940
Chain of pabp1_human PABPC1, P11940 (P11940 whole entry): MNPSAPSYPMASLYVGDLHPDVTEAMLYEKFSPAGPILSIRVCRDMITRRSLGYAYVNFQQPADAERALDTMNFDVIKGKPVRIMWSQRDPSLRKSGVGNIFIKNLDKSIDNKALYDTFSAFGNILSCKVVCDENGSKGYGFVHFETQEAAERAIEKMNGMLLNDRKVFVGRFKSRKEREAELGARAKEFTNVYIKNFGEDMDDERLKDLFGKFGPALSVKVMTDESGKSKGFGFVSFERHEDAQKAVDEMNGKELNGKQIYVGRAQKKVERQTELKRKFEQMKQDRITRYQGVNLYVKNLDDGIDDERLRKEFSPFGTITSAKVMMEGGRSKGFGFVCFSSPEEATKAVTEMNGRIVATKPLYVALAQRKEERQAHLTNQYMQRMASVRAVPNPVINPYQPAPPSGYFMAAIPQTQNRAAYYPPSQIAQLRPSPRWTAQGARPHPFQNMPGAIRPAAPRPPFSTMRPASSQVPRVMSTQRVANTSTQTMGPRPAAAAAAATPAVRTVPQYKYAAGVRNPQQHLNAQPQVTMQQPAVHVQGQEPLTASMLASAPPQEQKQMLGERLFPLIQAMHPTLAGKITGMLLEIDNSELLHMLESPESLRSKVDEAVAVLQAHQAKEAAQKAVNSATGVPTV

effect of a mutation on the interaction | Variant
disrupting interaction | F140A;F260A
